This data set is described as follows: soluble fraction after stress (log2 fold change); higher = more stays soluble; pooled small domains, quantitative proteomics. The note with it: stress: 75 degC.
In the case of “HMHGESIPIPNILHKRYADAEQIVNNLRLEIEVTDTGYVRSLPPGAILEQTPGPGERVKSGHIIYVTINAA”, the “soluble fraction (log2)” value was -1.42.

As for “HMHGETLAAKRREEIKVRIQNIYDQSEQIFGYRKITATLRSQGVVVSEKLVSQLMRELEISSVS”, the “soluble fraction (log2)” value is -3.92.

For “HMHGSSVEIPNIYGLPASEAVQLLDKADLRYEVIDSVYTTEVPKGAVYDLSPKAGSRVKAGRIIFLTLNA”, the “soluble fraction (log2)” value is -0.942.

With “HMHGSTAVVPQIKNMPYSEASVRLGANGLAIEINDSVYDRDMPPGTVIESWPKAGAVVKQGRQVYVTVTA”, the “soluble fraction (log2)” value is -0.425.

As for “HMHHGALKQALLDETARILAEEGESALSLRRLASNLGVSRTAPYNHFDNKDALLSAVAEEGFRR”, the “soluble fraction (log2)” value is -0.0868.

For the sequence “HMHIELNDTQKRILNFLSDDPNLSAVRLAEQLGISSRNVEKNIKKLKEYGILIRHGSPKNGYWEIVV”, the “soluble fraction (log2)” value is 0.0385.

Turning to “HMHITSFTIKQADQIVGTTPVREQAVGAAKARAQQTGTPVSVIAYLDTGEEREVIIHPDGTN”, the “soluble fraction (log2)” value amounted to 0.479.

For the sequence “HMHKLTSRQEEILQFIKDYLSEIGYPPTRSEIAQKMGFRSTNAAEEHLRALARKGAIEILPGPSRGLRLP”, the “soluble fraction (log2)” value is -1.13.

Turning to “HMHKTEIKIPSREDILAVLRQAQAPLTREQVFEHLKLTEDQIPIIEKRLNAMERDGQLMPNRKGMLLLSTK”, the “soluble fraction (log2)” value was -0.0438.

On to “HMHKYEYESLNHVNVGSNLKYISTHFGQPKLIKKSKYHENLNFAYYLEKKFILTLILEGDRVNAYTITG”, for which the “soluble fraction (log2)” value was -0.732.

On to “HMHLEKGEVVVPDLKGLTMRQVGELLGKLNLRYSFSGTGLAVKQFPESGQIVNQGDIIEVIF”, for which the “soluble fraction (log2)” value is -0.56.

For the sequence “HMHLLPAREQVAAYLRKAILRQEIREGTILNLADTARQMGVSVTPVREALQLLAAQGLVRLRPNKGAVVMG”, the “soluble fraction (log2)” value is -1.68.

In the case of “HMHLNVYRDEDEAMLAFKDHLIGTHQPIRVRVEKALPDGTMGHKIVDTTIGRIVFNHNIPQD”, the “soluble fraction (log2)” value was -0.185.

On to “HMHLTEAPLIKITYFEADQKKSGGQYITIINHLKKINEYENLLVLENGVKINIDDIYELESV”, for which the “soluble fraction (log2)” value was -0.191.

Regarding “HMHMNFGEILQTKRKEKGFTQEELAHQLLVSSKTISNWETNKTTPDIDNVIRISQLFDISLNQLLLE”, the “soluble fraction (log2)” value is -1.03.

As for “HMHMSKKLADSIISLRRKHGFSQEQLAEKIGVTRQAISNWERGTATPDVETLNLIAKLFDMDLLAIINGE”, the “soluble fraction (log2)” value amounted to 0.0813.

Take “HMHNLYAPTQKEVDHARRVVEAAEAAAREGLGVVSLNGKMVDGPVIDRARLVLSRAELSGIRE”: the “soluble fraction (log2)” value is -0.157.

On to “HMHNNTITLNKKTYVYTASGKKMSKYLGYTYINKGTTLNYYGTKNIKGKTFYYIGDHAYVNAANVGKVTN”, for which the “soluble fraction (log2)” value is -2.07.

In the case of “HMHNQIGDKIRELRTRSNLTQADLGKLVGVSMQAVSKWERGGTPDIDVLLSVAKYFNISLDEMVGRT”, the “soluble fraction (log2)” value was -1.51.

With “HMHPEITLHPVRANIYSISVKNATSMEIYSVSGQLVGIRELKEGTNTLDLTGYINGVYIVNLQNKAFKLVK”, the “soluble fraction (log2)” value is -2.38.

As for “HMHPELSDSQRTLIALMASGLKDEAIAVEMGVGARTVRRKVQELYELLGVRTRFQAGVAANQRGW”, the “soluble fraction (log2)” value was -2.34.

For “HMHPKDVPTRRELEVLQAVSEGLSTAEIGLRLDITENTVETFRRRLIQKFDAKNAIDLVVKAMAQGWIKV”, the “soluble fraction (log2)” value was -2.23.

Take “HMHQGTIEVGSIVHIEGQKALGTILSLTQREAIVGLGALKTTIPLKRLHLATEAEARRHKKSVTPQEAV”: the “soluble fraction (log2)” value is -0.66.

Consider “HMHQIFAETVFEDIAFGPRNKGFNEEEVAKQVREAMAFVGLDYDTYAQRSPFQLSGGQMRRVAIAGVVA”, for which the “soluble fraction (log2)” value stood at 0.0104.

As to “HMHQKYIITGTRDTYVVSQGETLRTIAEHVYGSRGYARYIIEHNHITHPDDIPVGLTIRLPELELNPDYR”, the “soluble fraction (log2)” value was -1.9.

Take “HMHRAKRTKAQTQSSLESIEGIGPKTRKQLLVHFGGLAEVKAASVSELQKVKGISLDKAQKIYDFFHGS”: the “soluble fraction (log2)” value is -0.617.

Consider “HMHRNLSFEEEKEFLSAYTKQAEAGQIVDLNEMKAAYIEKVGHSIGGSQIYRMLERHGWRKVM”, for which the “soluble fraction (log2)” value was -0.446.

For the sequence “HMHSDSEIEKGYTDDGQKLSNVNGVYMTKSEMYNKGIVEKDPNTGEEVMGRNRVNPVTGELE”, the “soluble fraction (log2)” value was 0.442.

With “HMHSDWITWWYLKDKRFDDDYSLWDRQPVHPEYFEVVKEFKAPPESNPGGLDEVKRILRTYIPDAFAP”, the “soluble fraction (log2)” value is -1.11.

In the case of “HMHSESAAHQRTSVELFARIPETGNLQSAQRHFDVINQFGRFPHRNKILQRPSSEQEEAFLRQPGSG”, the “soluble fraction (log2)” value turned out to be 0.265.

With “HMHSILDDIPTVGPARRKALMRRYESLEAIRQATVDELKELPEINEASAEAIVSFFAGQAKEG”, the “soluble fraction (log2)” value was -0.306.

For “HMHSRTWTSADGVKTFEGELQSYDAASGKVSVILPNHKRITFKQEKLSADDIAWLEKNGNRP”, the “soluble fraction (log2)” value is -0.033.

On to “HMHTGLTNYEYKQIKSSLLKILTQSESMRLGELVDKVDQFESEKVTTVIRFLVGNEELMLFDDTLTLKKQL”, for which the “soluble fraction (log2)” value was -0.202.

As to “HMHTTIIVASRDIAAGSVLTSHDLSSVAWVGGAVPKGSYTAADLAVGKTAFTAFQQGEPILESRLAS”, the “soluble fraction (log2)” value was -0.35.

For the sequence “HMHVVVIDKQGALSYQGKAITLLDLKNIVIDVPKETPFLIKADKDIHLQSFVEVLDLIKTAGFKKVSLQ”, the “soluble fraction (log2)” value was -2.86.

Turning to “HMIAANMTISQRIAAALAEYGVMSVKDIAQEVLGATDKKDTEKIRVTLTRDHGKRFRTYSDGTWSLKDWRP”, the “soluble fraction (log2)” value was -2.19.

Regarding “HMIAAVIAQVANTNERIILEKRYLSFKSWDEIAVEMRISPRWAYTLHERALKAVDQVLSKQNNE”, the “soluble fraction (log2)” value was -4.19.

Turning to “HMIADDLKSLEGVDQDMLRDLAEAGINTRDDLAELAIDELIEITGVSTEEAEKVIMAARAHWFEEES”, the “soluble fraction (log2)” value was 0.318.

Regarding “HMIAKEDDGTAFLIDGKISSEEEFKTISKDDILEVFVYKETEIAQKKLDSINSINNTYYTSLIEILLKE”, the “soluble fraction (log2)” value was no less than 1.04.

“HMIAKIEGQISYVGNRFLIVDVSGVGYKLFVTNEAISLSKVEESIKLWVHTAVRENSIDLYG”: the “soluble fraction (log2)” value was -1.7.

For “HMIANDDEIRKVVLEVIEEQPKAVEDVKNGRDRILDFLVGQVMKKTRGKANPSLASNLMKEEIEK”, the “soluble fraction (log2)” value worked out at 0.453.

As for “HMIANNFDEFVEKVSEAERKALNMPAGQEMTQKLLEMKLAANPNLTPEEWQRTKSEFMTFLFAVFVRE”, the “soluble fraction (log2)” value was -0.939.

With “HMIAVLEEGSHFRAVNDVTGKPFGPEMVIKNGQVTAVGKTISTKPKNLLGKKEGTKFVISGKQYVIKDI”, the “soluble fraction (log2)” value was -0.0244.

“HMIDAHTALLAKRLEAKGMLPLTDKSSAEEIYAEFGISKKAFKKALGALYKERLVRIGEDGVVWI”: the “soluble fraction (log2)” value was -1.8.

On to “HMIDFIGLEAKLLSTISGEKMGNAEVIVDGNVMNIYVKSLDTSEIKFRENVLIIKQSDDKNYYLVAKP”, for which the “soluble fraction (log2)” value is -3.26.

“HMIDIDTILKKYKPGRRDELIPLMQEIQEVYGHLSEEAVVKIGTYVGLSTTKIYGLATFYDQFRF”: the “soluble fraction (log2)” value is -1.76.

For the sequence “HMIDLGKSRTWHSENGRAIEARVINISEEQQTVEMQRVDGLKFELSWNQLSKADQTLLAEAAKKTALVA”, the “soluble fraction (log2)” value was -0.0567.

As for “HMIDLPDIDIDFAKRTGVLEHITHTPARLETGKQHNTGVYFTDIPRGVDGLATMDHKRAEQLGYFKLDML”, the “soluble fraction (log2)” value turned out to be 0.0214.

Regarding “HMIDNKIIRSLRQKRNMTLEELAKKANISVSYLSEIELGKKQPSLETINKLSQALNISREGLI”, the “soluble fraction (log2)” value is -0.0581.

In the case of “HMIDPHGSLTLDLRPRDARVEIIDSNKTYKPGVRLPMGEYAIAVSRRGYISETKRINIEYGDNRERVAL”, the “soluble fraction (log2)” value worked out at 0.108.

As to “HMIDSDENERIKELIKALISETLKSRGVSPEVISDIKERVDRLHNEELPRFAAELKELISRN”, the “soluble fraction (log2)” value was -0.0979.

Turning to “HMIDSEEVMETIQDLGYSPVFDVKEKFYKIKEEQIGKITLEVHIILRYGMVDLVWIVRENGELLLG”, the “soluble fraction (log2)” value is -0.0952.

On to “HMIDTLEYIISEESKGLRADQAITMVNGEFSRSLIQKWIKKGSILVNGKKIKPRDILNLNDKVTINPEEN”, for which the “soluble fraction (log2)” value was -0.24.

For “HMIEDMQQWIRQIREIVSNRLDLTRNISDDEIREVISDIVMEQSRQQYMSLNEKKTLMEGVFNSMR”, the “soluble fraction (log2)” value is -0.534.

For “HMIEEIETQFLFDFGLIGHPNSAKIREKLSEALGIGYVNGKQLQKRLMMFGITKQQVVDVLTD”, the “soluble fraction (log2)” value was -4.78.

Turning to “HMIEMAGGYRKGDRVELHSLKGAAEHNGKQGTVVGPQGERVKVLLDDSDSKTLALKVTNLTKLESA”, the “soluble fraction (log2)” value is 0.0656.

“HMIEMGNRIRTLRKRRVGSQSEFAEKLDVSVVTISRIENGMTKIDAELLIKMSEVLQVPVNIILGM”: the “soluble fraction (log2)” value is -3.29.

Turning to “HMIENPGQTFERIAGKITRTLRTGPLRIQQLDLLFSESGEQVMDVLRAMAENGEILIKDDTIQWNGHN”, the “soluble fraction (log2)” value was -0.246.

As to “HMIERKLRKKEHFIASVGEKVKIKNFATETYKGELISADNEKVVVETEFGKEEITYDNILAAATYFE”, the “soluble fraction (log2)” value was -0.808.

As for “HMIFNENLKSAREKKGLSQKEVAEAIGVAKSTYSLYESGNREPNVQTIKRIADVLNVSADVLLGL”, the “soluble fraction (log2)” value is -0.136.

Consider “HMIGELVVEDLAAASEINVDTIRYYQRLGLLEPPRRRGRRAVYDHTHLERLAEIRRLAGAGFTLAQIGRLK”, for which the “soluble fraction (log2)” value is -3.19.

For “HMIGILSDREAEILALLDEGLTNKAIGRRLNLAEPTVKFHLKNLYAKLGVGRRQLAVNVAKGSGLLNSD”, the “soluble fraction (log2)” value is -1.4.

As for “HMIGIRLKELVLKNQSAWVGLRVSELDISRKTMIVMIRRGDKMLIPNGSTILRSGDVLLLYTR”, the “soluble fraction (log2)” value is -0.682.

With “HMIGITTANLNVRTGTDTNYTSIAILPKGTKVNILEENVKPGWYKIQFDEIYAFVSSKYIKIQS”, the “soluble fraction (log2)” value was -3.56.

“HMIGMDMQELIGRYKGDPDEMGKIELAAMSMLKLSEDMSSDHVLQKSKLRQDGLWLLKYVQE”: the “soluble fraction (log2)” value is -0.637.

Consider “HMIHEQSLHKIRNFIGSLPESLRTAFTLREQDGLSYEEIGKITNTPIGTVRSRIYRARESILDHINQE”, for which the “soluble fraction (log2)” value was -1.23.

For the sequence “HMIHIGAQEALGEFQDEEGNLTASKKEVVAALVKKSKEVSFPTSYEYEVAARMAADEYNDAGQRMA”, the “soluble fraction (log2)” value came to 0.167.

For the sequence “HMIHKTDAINLGQRLLKSSLKEFDVSLKDIPNKTLMYILSEYKFNSLDDLYREIGLGNVIPKLVALRMAP”, the “soluble fraction (log2)” value was -0.585.

Take “HMIHTYVETRKVGNNDGLIRVDNKYYRVPQHLVGMKVQIQIDEATISVLQGGVMVATLDKTADVFNPQA”: the “soluble fraction (log2)” value was -3.24.

“HMIIDPQIRTLWTSQIIDILKSNPKRSIRSILELYPSNKESWVLIILQELIGEEKIIRDLDYLYFNK”: the “soluble fraction (log2)” value was -1.79.

The values above are taken from the domain aggregation screens of Martell et al. (2025).
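Note: 20 min heating vs room temperature control held 20 min.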
